Residue numbers refer to the chain shown, from its start. Where two headings read alike, the source gives them in different places. Values belong to the binder of their own block, whether it stands above or below them.
How the values were obtained:
soluble human TNFR2 [1] = target: T1, soluble human TNFR2 (human, UniProt P20333 23-257); assay: competition ELISA: plate-bound soluble human TNFR2, competitor biotinylated TNFα; IC50 relative to unlabelled TNFα = 1.00
T1 construct: also called soluble TNFR2
T1 sequence (looked up): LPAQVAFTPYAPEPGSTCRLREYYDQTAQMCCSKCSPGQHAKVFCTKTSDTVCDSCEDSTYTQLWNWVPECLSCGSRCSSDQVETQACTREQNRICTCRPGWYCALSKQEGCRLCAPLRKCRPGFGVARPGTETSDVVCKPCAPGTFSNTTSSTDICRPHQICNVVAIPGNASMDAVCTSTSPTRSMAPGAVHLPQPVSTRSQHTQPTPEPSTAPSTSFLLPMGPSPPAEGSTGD
Experimental: (§1) Soluble human TNFR2 (Sino Biological, 10417-H08H) or cynomolgus TNFR2 (Sino Biological, 90102-C08H) was coated on Nunc-Immuno™ plates at 0.1 μg/ml, 0.5 ug/ml, 1 μg/ml, and 5 μg/ml. […] Plates were developed using TMB and stopped with 3 M HCl.

soluble cynomolgus TNFR2 [2] = target: T2, soluble cynomolgus TNFR2 (cynomolgus, UniProt A0A2K5VET2 132-366); assay: competition ELISA: plate-bound soluble cynomolgus TNFR2, competitor biotinylated TNFα, streptavidin-HRP, A450
T2 sequence: T1 sequence (looked up) with S16G, S36P, P117Q, N164H, E210A, S216G, M223V
Experimental: as §1

soluble cynomolgus TNFR2 [3] = target: T2, soluble cynomolgus TNFR2; assay: competition ELISA: plate-bound soluble cynomolgus TNFR2, competitor biotinylated TNFα; IC50 relative to unlabelled TNFα = 1.00
Experimental: as §1
(§2) IC₅₀ values are reported in nM.

soluble human TNFR2 [4] = target: T1, soluble human TNFR2; assay: competition ELISA (FIG. 2), plate-bound soluble human TNFR2, constant biotinylated TNFα as competitor
Description: (§3) Soluble human TNFR2 was coated on Nunc-Immuno™ plates. […] IC₅₀ values are reported in nM.

soluble human TNFR2 [5] = target: T1, soluble human TNFR2; assay: competition ELISA: plate-bound soluble human TNFR2, competitor biotinylated TNFα, streptavidin-HRP, A450
Experimental: as §1

soluble cynomolgus TNFR2 [6] = target: T2, soluble cynomolgus TNFR2; assay: competition ELISA: plate-bound soluble cynomolgus TNFR2, competitor biotinylated TNFα; IC50 relative to unlabelled TNFα = 1.00; remark: listed apart in the source
Experimental: as §1

soluble human TNFR2 [7] = target: T1, soluble human TNFR2; assay: competition ELISA (FIG. 1), plate-bound soluble human TNFR2, constant biotinylated TNFα as competitor
Description: as §3

[8] = target: T3, monomeric human TNFR2 extracellular domain (human, UniProt P20333 23-257); assay: BLI (Octet Red 96), antibody captured on Fc biosensor, monomeric TNFR2 ECD in solution, 1:1 model
T3 construct: extracellular domain; Analyte in the Octet experiments; also called human TNFR2 ECD
T3 sequence (looked up): T1 sequence (looked up)
Experimental: (§4) Analysis of binding to the human and cynomolgus TNFR2 ECD was performed using an Octet Red 96 Instrument™ (ForteBio). […] The experiments were performed using five steps: (1) baseline acquisition (60 s); (2) antibody loading on to anti-human or anti-mouse Fc biosensors (120 s); (3) second baseline acquisition (60 s); (4) association of interacting monomeric human or cynomolgus TNFR2 ECD protein for kₒₙ measurement (120 s); and (5) dissociation of interacting monomeric human or cynomolgus TNFR2 ECD for koff measurement (240-3600 s).
(§5) The interacting monomeric human or cynomolgus ECD was used at 5-6 concentrations of a 3-fold concentration series. The data were analyzed using Octet Data Analysis Software 9.0™ (ForteBio) and fit to the 1:1 binding model. The equilibrium dissociation constants (Kd) were calculated by the ratio of […].

[9] = target: T4, monomeric cynomolgus TNFR2 extracellular domain (cynomolgus monkey, UniProt A0A2K5VET2 132-366); assay: as above
T4 construct: extracellular domain; Analyte in the Octet experiments; also called cynomolgus TNFR2 ECD; Cyno TNFR2
T4 sequence: T1 sequence (looked up) with S16G, S36P, P117Q, N164H, E210A, S216G, M223V
Experimental: as §4, §5

soluble cynomolgus TNFR2 [10] = target: T2, soluble cynomolgus TNFR2; assay: competition ELISA, plate-bound soluble cynomolgus TNFR2, biotinylated TNFα as competitor
Experimental: as §1, §2

soluble human TNFR2 [11] = target: T1, soluble human TNFR2; assay: competition ELISA, plate-bound soluble human TNFR2, biotinylated TNFα as competitor
Experimental: as §1, §2

soluble cynomolgus TNFR2 [12] = target: T2, soluble cynomolgus TNFR2; assay: competition ELISA: plate-bound soluble cynomolgus TNFR2, competitor biotinylated TNFα, streptavidin-HRP, A450; remark: listed apart in the source
Experimental: as §1

soluble human TNFR2 [13] = target: T1, soluble human TNFR2; assay: competition ELISA: plate-bound soluble human TNFR2, competitor biotinylated TNFα; IC50 relative to unlabelled TNFα = 1.00; remark: listed apart in the source
Experimental: as §1, §2

soluble human TNFR2 [14] = target: T1, soluble human TNFR2; assay: competition ELISA: plate-bound soluble human TNFR2, competitor biotinylated TNFα, streptavidin-HRP, A450; remark: listed apart in the source
Experimental: as §1

[15] = target: T3, monomeric human TNFR2 extracellular …; assay: BLI (Octet Red 96), Human TNFR2 Kd (1-1)
soluble human TNFR2 [16] = target: T1, soluble human TNFR2; assay: competition ELISA (FIG. 2), plate-bound soluble human TNFR2, constant biotinylated TNFα as competitor; unit from paragraph 202 (IC50 values are reported in nM)
Description: as §3

- Relative IC50 (soluble human TNFR2 [1]): 2.33 nM
- IC50 (soluble cynomolgus TNFR2 [2]): 19.6 nM
- Relative IC50 (soluble cynomolgus TNFR2 [3]): 2.04 nM
- IC50 (soluble human TNFR2 [4]): 5.08 nM
- IC50 (soluble human TNFR2 [5]): 5.77 nM
- Relative IC50 (soluble cynomolgus TNFR2 [6]): 2.13 nM
- IC50 (soluble human TNFR2 [7]): 5.12 nM
- Kd [8]: 1.3 nM
- Kd [9]: 0.44 nM
- Average Relative IC50 (soluble cynomolgus TNFR2 [10]): 1.98
- Average Relative IC50 (soluble human TNFR2 [11]): 2.19 nM
- IC50 (soluble cynomolgus TNFR2 [12]): 8 nM
- Relative IC50 (soluble human TNFR2 [13]): 2.17 nM
- IC50 (soluble human TNFR2 [14]): 12.1 nM
- Kd [15]: 1.3 nM
B1: SBT-002 (antibody, V domains shown)
VH: QVTLKESGPGILQPSQTLSLTCSFSGFSLSTSGMGVGWIRQPSGKGLEWLAHIWWDDDKFYNPSLKSQLTISKDTSRNQVFLKLTSVVTADTATYYCARLTGTRYFDYWGQGTTLTVSS
VL: DVQMTQSPSSLSASLGGKVTITCKASQDINKFIAWYQHKPGKGPRLLIHYTSTLQPGIPSKFSGSGSGRDYSFSISNLEPEDIATYYCLQYGNLWTFGGGTKLEIT
notes: Parental mouse antibody; also called mouse SBT-002

- IC50 (soluble human TNFR2 [7]): 7.88 nM
- Kd [8]: 1.8 nM
- IC50 (soluble human TNFR2 [16]): 6.59 nM
- Kd [15]: 1.1 nM
B2: SBT-004 (antibody, V domains shown)
VH: EVQLQQSGPEVGRPGSSVKISCKASGYTFTDYIMHWVKQSPGQGLEWIGWVDPEYGSTDYAEKFKKKATLTADTSSNTAYIQLSSLTSEDTATYFCARDDGSYSPFDYWGQGVMVTVSS
VL: DIQMTQSPPSLSASLGDKVTITCQASQNINKYIAWYQQKPGKAPRLLIRYTSTLESGTPSRFSGSGSGRDYSFSISNVESEDIASYYCLQYVNLLTFGAGTKLEIK
notes: Parental rat antibody; also called rat SBT-004
